B1: Isoform 2 of ATP-binding cassette sub-family B member 8, mitochondrial (Homo sapiens), Q9NUT2-2 (parent)
chain: MLVHLFRVGIRGGPFPGRLLPPLRFQTFSAVRYSDGYRSSSLLRAVAHLRSQLWAHLPRAPLAPRWSPSAWCWVGGALLGPMVLSKHPHLCLVALCEAEEAPPASSTPHVVGSRFNWKLFWQFLHPHLLVLGVAVVLALGAALVNVQIPLLLGQLVEVVAKYTRDHVGSFMTESQNLSTHLLILYGVQGLLTFGYLVLLSHVGERMAVDMRRALFSSLLRQDITFFDANKTGQLVSRLTTDVQEFKSSFKLVISQGLRSCTQVAGCLVSLSMLSTRLTLLLMVATPALMGVGTLMGSGLRKLSRQCQEQIARAMGVADEALGNVRTVRAFAMEQREEERYGAELEACRCRAEELGRGIALFQGLSNIAFNCMVLGTLFIGGSLVAGQQLTGGDLMSFLVASQTVQRSMANLSVLFGQVVRGLSAGARVFEYMALNPCIPLSGGCCVPKEQLRGSVTFQNVCFSYPCRPGFEVLKDFTLTLPPGKIVALVGQSGGGKTTVASLLERFYDPTAGVVMLDGRDLRTLDPSWLRGQVVGFISQEPVLFGTTIMENIRFGKLEASDEEVYTAAREANAHEFITSFPEGYNTVVGERGTTLSGGQKQRLAIARALIKQPTVLILDEATSALDAESERVVQEALDRASAGRTVLVIAHRLSTVRGAHCIVVMADGRVWEAGTHEELLKKGGLYAELIRRQALDAPRTAAPPPKKPEGPRSHQHKS
partner: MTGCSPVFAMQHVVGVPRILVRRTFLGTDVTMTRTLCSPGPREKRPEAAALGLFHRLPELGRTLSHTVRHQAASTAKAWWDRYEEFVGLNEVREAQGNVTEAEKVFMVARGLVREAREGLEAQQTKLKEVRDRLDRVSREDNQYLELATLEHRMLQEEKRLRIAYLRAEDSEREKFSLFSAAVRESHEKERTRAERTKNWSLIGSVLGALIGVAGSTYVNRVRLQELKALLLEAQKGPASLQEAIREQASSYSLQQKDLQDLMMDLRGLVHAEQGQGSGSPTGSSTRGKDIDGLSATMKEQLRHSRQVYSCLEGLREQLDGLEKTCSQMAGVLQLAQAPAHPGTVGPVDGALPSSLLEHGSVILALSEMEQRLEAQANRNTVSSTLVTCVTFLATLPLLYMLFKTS

Variants of: B1
Settings: with Ccdc51, Q3URS9-1

Row | Variant | effect of a mutation on the interaction
1 | K496A | with no effect

Reference: IntAct's records for PubMed 31435016
